Data from publication PMC2175198.

Target: ribosomes (membrane-bound, carrying nascent chains) (S. cerevisiae (endogenous in yeast microsomes))
Assay: co-sedimentation

percent of Sec61p bound to ribosomes (25°C; sec61-3 strain) [%]	percent of Sec61p bound to ribosomes (25°C; wild-type and srp101-47 strains) [%]	percent of Sec61p bound to ribosomes (srp101-47 strain, 3 h at 37°C) [%]	Molecule
30			Sec61p of the sec61-3 mutant (from UniProt P32915 1-480) (natural protein)
	30	20	Sec61p (natural protein) MSSNRVLDLFKPFESFLPEVIAPERKVPYNQKLIWTGVSLLIFLILGQIPLYGIVSSETSDPLYWLRAMLASNRGTLLELGVSPIITSSMIFQFLQGTQLLQIRPESKQDRELFQIAQKVCAIILILGQALVVVMTGNYGAPSDLGLPICLLLIFQLMFASLIVMLLDELLSKGYGLGSGISLFTATNIAEQIFWRAFAPTTVNSGRGKEFEGAVIAFFHLLAVRKDKKRALVEAFYRTNLPNMFQVLMTVAIFLFVLYLQGFRYELPIRSTKVRGQIGIYPIKLFYTSNTPIMLQSALTSNIFLISQILFQKYPTNPLIRLIGVWGIRPGTQGPQMALSGLAYYIQPLMSLSEALLDPIKTIVYITFVLGSCAVFSKTWIEISGTSPRDIAKQFKDQGMVINGKRETSIYRELKKIIPTAAAFGGATIGALSVGSDLLGTLGSGASILMATTTIYGYYEAAAKEGGFTKNLVPGFSDLM
